Laboratory results published in publication PMC4417206.

Molecular target: T1, N-ht-CRP (cAMP receptor protein) (Shewanella oneidensis MR-1) (UniProt Q8EJ49)
T1 sequence: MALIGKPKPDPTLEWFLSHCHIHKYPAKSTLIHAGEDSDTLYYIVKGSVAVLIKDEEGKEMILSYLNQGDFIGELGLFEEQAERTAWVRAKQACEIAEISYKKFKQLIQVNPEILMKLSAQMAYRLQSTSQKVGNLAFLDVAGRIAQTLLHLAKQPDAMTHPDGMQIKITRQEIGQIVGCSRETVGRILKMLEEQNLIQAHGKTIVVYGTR
Assay: EMSA
Details: 10 mM Tris-HCl pH 7.6, 0.5 mM EDTA, 100 mM KCl, 50 ug/mL BSA, 50 ug/mL poly(dI-dC), 50 uM cAMP, 10% glycerol, 2 nM probe, 0-200 ng CRP in 20 uL, on ice 30 min …

Sequence	binding
CCTTGGGGAATTCTATTTCCAGCATCCACTTAAGTCGCTTCTAGTGATCAAATACACAGACATAGAATCTGTTGGCGCTAGAGCATAGCGGTTAAGCAATGCCAAACCTATGCAGGGAAAA (double strand) [PBmtrC2]	no binding
CCCGCTTAAAGTGACTGATAAATACCAATGACTTAGTTAGCCTTACAGGTGGGATCTAATTCC (double strand) [PBomcA2]	no binding
TCCACCTCACTATCTGTTGTTTTTTTGCTCTCAATTTGTTTTTCCCTTGTGGTTTAACTACCTCTTTAGAAATAGAAAGATCCAAGTCACACATTAGCAAAGGCTTAGAAGATTTTAACGGCATGTTGGGTTAGCCTTTCCTTGGGGAATTCTATTTCCAGCATCCACTTAAGTCGCTTCTAGTGATCAAATACACAGACATAGAATCTGTTGGCGCTAGAGCATAGCGGTTAAGCAATGCCAAACCTATGCAGGGAAAA (double strand) [PBmtrC1]	binds more weakly
